The text below walks through data of US20260258115A1 (MAPP BIOPHARMACEUTICAL, published 2026).

Experiment in all cases: BLI, IgG
A general note: BLI is a label-free optical method that tracks binding on a fibre tip over time.

Test [1] addresses T1, RSV postfusion F (postF), subtype A (respiratory syncytial virus subtype A, UniProt P03420 26-513).
T1 construct: also called Postfusion subtype A; F deltaFP

The target of test [2] is T2, RSV prefusion F (preF), subtype B (respiratory syncytial virus subtype B).
T2 construct: also called Prefusion subtype B

Test [3] has as its target T3, RSV postfusion F (postF), subtype B (respiratory syncytial virus subtype B).
T3 construct: also called Postfusion subtype B

B1: ADI-22777 (antibody, V domains shown)
VH: QVQLVQSGAEVKRPGASVKVSCKASEYTFNFHDINWVRQAPGQGLEWMGWMNPKSGNTGYAQKFQGRVTMTRDTSKNTAYLELSSLRSEDTAVYYCARGYGTSWSSDSWWGQGTLVTVSS
VL: SYELTQLPSVSVSPGQTARITCSGDALSKQFVYWYQQKPGLAPMLVIYKDTNRPSWIPERFSGSGSGTTATLTISEVQAEDEADYYCQSVDNSGTYGWVFGGGTKVTVL
notes: full-length IgG
For orientation: Kd means the free concentration of one partner at which half of the binding sites on the other are occupied at equilibrium, for simple one-to-one binding. Higher therefore signals lower affinity. As to B1, the equilibrium dissociation constant (Kd) was 0.268 nM in test [1], 0.762 nM in test [2] and 0.224 nM in test [3].

B2: ADI-14339 (antibody, V domains shown)
VH: QVQLVESGGGVLQPGRSLRLPCEASGFTFNKYAMHWVRQAPGKGLEWVAAVSYDGGNKFYAESVKGRFTISRDNSKNTLYLQMNSLKPEDTAVYYCARDRWELLHGLDYWGLGTLVTVSS
VL: SYELTQPPSVSVSPGQTARITCSGEALAKQYAYWYQQKPGQAPVLVIYKDNERPSGISERFSGSSSGTTVTLTISGVQAEDEADYYCQSADSSGTYVFGTGTKVTVL
notes: full-length IgG; also called Ab 7
Regarding B2, the dissociation constant Kd in test [1] stood at 0.439 nM; in test [2], 1.77 nM; in test [3], 0.376 nM.

B3: ADI-22780 (antibody, V domains shown)
VH: EVQLVESGPTLVKPTQTLTLTCTFSGFSLSTSGVGVGWIRQPPGKALEWLALIYWDDDKRYSPSLKSRLTITKDTSKNQVVLTMTNMDPVDTATYYCAHRGRQYSYGYYYFDYWGQGTLVTVSS
VL: QSVLIQPASVSGSPGQSITISCTGTSSDVGGYNFVSWYQQHPGKAPKLMIYDVSNRPSGVSNRFSGSKSGNTASLTISGLQAEDEADYYCSSYTSSTLDVFGTGTKVTVL
notes: full-length IgG
Turning to B3, the Kd was found to be 0.739 nM in test [1], 23.8 nM in test [2] and 0.6 nM in test [3].

B4: ADI-14354 (antibody, V domains shown)
VH: QVQLVQSGAEVKKPGSSAKVSCKASGGTFSSYTISWVRQAPGQGLEWMGRIIPFLGIANYAQKFQGRVTFTADKSTSTVYMDLSRLRSEDTALYYCAREPMYYGGDSYAFDVWGQGTTVTVSS
VL: QSVLTQPASMSGSPGHSITISCTGTSSDVGAYNYVSWYQQHPGKAPKLMIYDVSNRPSGVSSRFSGSKSGNTASLTISGLQPEDEADYYCSSFTTSSTRVFGTGTKLTVL
notes: full-length IgG; also called Ab 22
In the case of B4, the results for the Kd in test [1], in test [2] and in test [3] were 1.04 nM, 25.3 nM and 6.63 nM, respectively.

B5: ADI-14351 (antibody, V domains shown)
VH: EVQLLESGGGLVQPGGSLRLSCSASGFTFSTYWMHWVRQAPGKGLVWVSRINGDGNDRNYADSVKGRFTISRDNAKNTVYLQMNSLRAEDTAVYYCARGGATGDFYFGMDVWGQGTTVTVSS
VL: SYELTQPPSVSVAPGKTAKITCGGNNIGTKSVHWYQQKPGQAPVLVIYYDTDRPSGIPERFSGSNSGNTATLTISRVEAGDEADYYCQVWDSSNSDHVGVFGGGTQLTVL
notes: full-length IgG; also called Ab 19
Turning to B5, the Kd in test [1] was determined as 0.361 nM; in test [2], 0.789 nM; in test [3], 0.215 nM.

B6: ADI-14352 (antibody, V domains shown)
VH: EVQLLETGPGLVKPSQTLSLICAVSGGSISSGGYSWSWIRQPPGKGLEWVGYISYSGSTYYNPSLKSRVTISVDTSKNQFSLKLNSVTAADTAVYFCARVDGIYSSGMRFDYWGQGTLVTVSS
VL: DIQLTQSPGTLSLSPGERATLSCRASQSVSSYYLAWYQQKPGQAPRLLIYGTSSRATGIPDRFSGSGSGTDFTLTISRLEPEDFAVYYCQQYGRSPLFGQGTRLEIK
notes: full-length IgG; also called Ab 20
Consider B6, for which the equilibrium dissociation constant (Kd) in test [1] amounted to 0.448 nM; in test [2], 5.54 nM; in test [3], 0.383 nM.

B7: ADI-22778 (antibody, V domains shown)
VH: EVQLVESGPGLVKPSETLSLTCTVSGGSINSYSWTWIRQPPGKGLEWLGSFDYSGSNTYNPSLKSRVTIAVDTSKNQFSLKLTSATAADTAVYYCARAPVYDSSGYYLYYFDNWGQGTLVTVSS
VL: DIQMTQSPSSLSASVGDRVTITCRASQSIASYLNWYQQKPGKAPKLLIFAASNLHSGVPSRFSGSGSGTTFTLTISSLQPEDFATYYCQQSYSIRFFTFGPGTKLEIK
notes: full-length IgG
With B7, the dissociation constant (Kd) was 0.209 nM in test [1], 4.02 nM in test [2] and 2.77 nM in test [3].
